The values that follow come from the DeepSol protein solubility set.

The data set is described as follows: soluble on expression in E. coli; label from the status in PepcDB or PDB records.
Consider “MSLDLNQIKAVVFDLEGTLLDRVKSREKFIEEQYERFHDYLIHVQLADFKKAFIELDDDEDNDKPDLYKEIIKRFHVDRLTWKDLFNDFEMHFYRYVFPYYDTLYTLEKLSQKGFQIGVIANGKSKIKQFRLHSLGLMHVINYLSTSETVGFRKPHPKIFEDMIDQLGVLPEQIMYVGDDALNDVAPARAMGMVSVWYKQEDAEIEPLEEEVDFTITTVEELLTILPIKNDNKGENYGSIYEGHHHHHH”, for which the “soluble on expression in E. coli” value was “soluble”.
The result for “MKVDLFDFHLPEELIAQTPLPDRAASRLMVLDKRTGAIRHETFRNIISYLNPGDCLVLNDTRVMPARLYGEKEETGGTVEVLLLKQLDGDRWETLVKPGKRVKPGTKLTFGEGKLEAVCLDTLEHGGRVLEFSYDGLFYEVLAELGEMPLPPYIKEKLDDPERYQTVYAREIGSAAAPTAGLHFTEELLDAIREKGVHIVFITLHVGLGTFRPVQVDDVEKHDMHAEFYQMSEETAETLNRVREQGGRIIAVGTTSTRTLETIAGKHNGRFVAESGWTDIFIYPGYEFKGIDGLVTNFHLPKSTLIMLVSALAGRENILHAYQVAVKERYRFFSFGDAMLII” reads “soluble”; that for “MEKVMKCHRVEELLQLLEPEWHKDSELNLIQFLLKLAQEAGYQGALEDLTDDVLIYHLKMRNSAKDAVIPGLKKDYEDDFKTAILRARGIIK”, “not soluble”.
The result for “MGLEKTVKEKLSFEGVGIHTGEYSKLIIHPEKEGTGIRFFKNGVYIPARHEFVVHTNHSTDLGFKGQRIKTVEHILSVLHLLEITNVTIEVIGNEIPILDGSGWEFYEAIRKNILNQNREIDYFVVEEPIIVEDEGRLIKAEPSDTLEVTYEGEFKNFLGRQKFTFVEGNEEEIVLARTFCFDWEIEHIKKVGLGKGGSLKNTLVLGKDKVYNPEGLRYENEPVRHKVFDLIGDLYLLGSPVKGKFYSFRGGHSLNVKLVKELAKKQKLTRDLPHLPSVQALLEHHHHHH” reads “soluble”.
As for “MGSSHHHHHHSSGLEVLFQGPHMDFDVKRKYFRQELERLDEGLRKEDMAVHVRRDHVFEDSYRELHRKSPEEMKNRLYIVFEGEEGQDAGGLLREWYMIISREMFNPMYALFRTSPGDRVTYTINPSSHANPNHLSYFKFVGRIVAKAVYDNRLLECYFTRSFYKHILGKSVRYTDMESEDYHFYQGLVYLLENDVSTLGYDLTFSTEVQEFGVAEVRDLKPNGANILVTEENKKEYVHLVCQMRMTGAIRKQLAAFLEGFYEIIPKRLISIFTEQELELLISGLPTIDIDDLKSNTEYHKYQSNSIQIQWFWRALRSFDQADRAKFLQFVTGTSKVPLQGFAALEGMNGIQKFQIHRDDRSTDRLPSAHTCFNQLDLPAYESFEKLRHMLLLAIQEASEGFGLA”, the “soluble on expression in E. coli” value is “soluble”.
Turning to “MTRIISIVSGKGGTGKTTVTANLSVALGEMGRKVLAVDGDLTMANLSLVLGVDDVNITLHDVLAGDAKLEDAIYMTQFENVYILPGAVDWEHVIKADPRKLPEVIKSLKGKYDFILIDCPAGLQLRAMSAMLSGEEAILVTNPEISCLTDTMKVGMVLKKAGLAILGFILNRYGRSERDIPPEAAQDVMDVPLLAVIPEDPVIREGTLEGIPAVKYKPESKGAQAFIKLAEEVDKLAGIKAKI”, the “soluble on expression in E. coli” value is on record as “soluble”.
On to “MIVIFVHGWSVTHTNTYGELPQWLENQSKQGKLDIQVGNIYLGRYISFDDTVTVDDIARAFDQAVRDEIAAKVKDGQRFACITHSTGGPIVRKWMDLYFKNNLAKCPLSHLIMLAPANHGSALAQLGKSRLGRIKSFFEGIEPGKCVLDWLELGSDMSWQLNESWLDYDCTANGVYSFVLTGQKIDRQLYDAVNSYTGESGSDGVVRVAATNMNYSLLKLHQEGDNGESLVVAKMTRTQPMAFGVLPGLSHSGKNIGIIRSITMANAATHPTAIWVLRCLQVKSRDSYNKLVKELDNITKETQKNEHKEFVKTLVFTREYITNRYSMIIFRLIDDRGNHLIDYDLYLTAGPQYSEQALPAGFFVDRQRNLNNRGKLTYFLDYDIMEGGINTPKMQGNLGFRVKAYPESSEQALAYYRLLDFHSSLADIHKILHPNETVMVEIMLQRRVDKTVFRINNNLTPAKISGKPTGKKID”, for which the “soluble on expression in E. coli” value is recorded as “not soluble”.
As for “MGSDKIHHHHHHMINLSKKLIRQVAQANAKFGLIKDGDRVLLGLSGGKDSLALAHLLNRMQAHAPFKFELEAVTLSYGMGEDYSHLHAHCEEHGIKHSVLDSNIYEVSGDTIRENSSFCSYFSRMRRGALYTYALEKGFNKLAIAHHLDDAAESFFMNFIHNGALRTLAPIYQSKRGITVIRPLIFVRERQLRDNATQNELSVIGNEFCPGMKLSEKNVKFPHAREEAKQLLANLEKDHPKLFTSLKTAFANLHTESFWLQKA”, the “soluble on expression in E. coli” value is given as “not soluble”.
Regarding “MALASAADFFAQQHPSYGRHIGQLYERAVKNDLSFTHTFVNPQVNRSLGYMEEDGEPIAAKVVRETADGLIIKGARLLATQGGMTDELLVLPAGGALLGDEYMYAFSIPSNAPGLKFVCRPSLAAGALVFDAPLSSRFDEIDAMVVFDEVLVPWDRVFFYKNAWFAKEMEEETHLAIMLLHQVLARRIVKTEFFLGTVELLSEAIQIGGYQHVQEKIGEIAAALEALRGMLLASELHAKPDRRGTMVPDPAPLYAAAFLYPRLYPRFADIIQLLGASGLVCLPTEADFSSPLRPDLDRYLQAATLPAEQRVRLFRFAWDMAMSAFGTRQTLYERFFFGDPARFATTFYHRYDREACAEIVRQFLDSEQR”, the “soluble on expression in E. coli” value was “not soluble”.
The result for “MANEANPCPCDIGHKLEYGGMGHEVQVEHIKAYVTRSPVDAGKAVIVVQDIFGWQLPNTRYMADMIARNGYTTIVPDFFVGQEPWDPAGDWSTFPAWLKSRNARKVNREVDAVLRYLRQQCHAQKIGIVGFCWGGVVVHQVMTAYPDIRAGVSVYGIIRDSEDVYNLKNPTLFIFAENDTVIPLEQVSTLTQKLKEHCIVNYQVKTFSGQTHGFVHRKREDCSPADKPYIEEARRNLIEWLNKYV” reads “not soluble”.
On to “MAHHHHHHMKINLSFNKNKENKNRNKNGDTDIDNDTRNNKSYKENNPMTRNKIETIFSMSDDEETINYENTHNKIIQQKKENQLNDKIKEYIKEHEEPALTTHEKKEDKKERIDEKNNKKKIQYLGYKSNELTKLNNPKTDDSYDYPFEEKEIYDNLDEKERKKKTIEHNDKDGHEYYKKDHKNHKKYTRSHENDNEVNAYNKDCDVRNKTIDKKTYMKKYDKNIQDYEKKKKKSENSDDDVNRSYLCIDDIFKKKENIDGKKKSKYMEALINSAKRRELEKEFLIQKKQKIDTEKEEKVFVTSAYKKKLMDRELIKKDMDLEVEEKKVDKSSNYNLNLFLKNINAPSNYNRYNRR”, for which the “soluble on expression in E. coli” value was “soluble”.
In the case of “MNLCRECYGIIGEGVVAEKCEACCNAFDRVEEFAEEIVKKMSEYEFETFNVGSRVWGSLKALQEYLSLKGIEYEIKQRFNTKLARAIEEKTGSKRTLNPDITVLFDLETFTFELQIRPVFIYGRYLKRVRNISQTRWLCGYCNGEGCEVCNFTGKKYVSSVEELIAMPAVRLFKARDAKLHGAGREDVDARMLGTGRPFVLEVIEPRKRFVDLKELEEAINSQKWVAVRDLEYTDAEKVREVKTERHRKTYRAKVVFEEKVERERLIEALESLKGEIRQRTPMRVSHRRADRVRVRRLYDARLIHHTGRVAVVEFEAEAGLYIKELVSGDNGRTRPSLAEKVGVNARVDRLDVIAVSLEHHHHHH”, the “soluble on expression in E. coli” value is recorded as “soluble”.
For “AMLAELTHRCPLACPYCSNPLALHGKARELDTQTWARAFDEAAALGVLQLHLSGGEPASRPDLVELTRAAHEAGLYTNLITSGIGLTPARLDALEAVGLDHIQLSLQGTTPDLADRIGGYKGGFARKMAVAAEIKARGIPLTLNAVMHRHNLDDLERTIELAIELGARRLEVACVQFHGWATRNRAALLPSRAQTEAAKRIVAEAEARLRGTLAFDFVPPDYYADYPKACMGGWGSAGLNIAPDGTVLPCHAA”, the “soluble on expression in E. coli” value was “not soluble”.
As to “MGSDKIHHHHHHDSVKTNTNPQQAIQGEWISYSESKINLPKTTSAADAHKLLDLTASTSEKIKFDKKKVTLATNEYDYKLGRQIIIGSYSYDYKLEHGQDILKFDTTSSDIGGNVYYRVGSKLEKEKTKEINDKEAKEKKSVTHLNEVWKAKTDIIEKSLKEAMIGTWSGHFKAVATTGQGVAWAPGMQTLTFDGGTNLSFHASSDSLTNFDQIVIHNAYASYQPNGILGLEPSDHIPVDPKKLLNIIKDLTAEQMFSRIKYIAFSYDVTTDTGTISQSFSPSELSYKNGKLSFDTALLITQCGDEGVQISGDVSKTE”, the “soluble on expression in E. coli” value is listed as “not soluble”.
Turning to “SVRVMQLTLGNSTITTQEAANSVVAYGRWPEYIKDSEANPVDQPTEPDVAACRFYTLDTVTWRKESRGWWWKLPDALKDMGLFGQNMFYHYLGRAGYTVHVQCNASKFHQGALGVFAVPEMCLAGDSTTHMFTKYENANPGEKGGEFKGSFTLDTNATNPARNFCPVDYLFGSGVLAGNAFVYPHQIINLRTNNCATLVLPYVNSLSIDSMTKHNNWGIAILPLAPLDFATESSTEIPITLTIAPMCCEFNGLRNITVPRTQ”, the “soluble on expression in E. coli” value is “soluble”.
Regarding “MSDILLGKLATEFKTVKAMVEVYCHDHHGTKDALCSECRELLEYAEVRLDRCPYGEEKPTCNKCPIHCYKPEPKEQMRLVMRYSGPRMLLKHPILAVRHLLHEKREVPEKPAANASNRHKRINAERDT”, the “soluble on expression in E. coli” value is “not soluble”.
For “VKNPSLICAPVMADSIDKMVIETSKAHELGADLVEIRLDWLKDFNPLEDLKTIIKKSPLPTLFTYRPKWEGGQYEGDENERRDVLRLAMELGADYIDVELQVASEFIKSIDGKKPGKFKVIVSSHNYQNTPSVEDLDGLVARIQQTGADIVKIATTAVDIADVARMFHITSKAQVPTIGLVMGERGLMSRILCSKFGGYLTFGTLDSSKVSAPGQPTIKDLLDLYNFRRIGPDTKVYGIIGKPVSHSKSPIVHNQAFKSVDFNGVYVHLLVDNLVSFLQAYSSSDFAGFSCTIPHKEAALQCCDEVDPLAKSIGAVNTILRRKSDGKLLGYNTDCIGSISAIEDGLRSSGDPSSVPSSSSPLASKTVVVIGAGGAGKALAYGAKEKGAKVVIANRTYERALELAEAIGGKALSLTDLDNYHPEDGMVLANTTSMGMQPNVEETPISKDALKHYALVFDAVYTPRITRLLREAEESGAITVSGSEMFVRQAYEQFEIFTGLPAPKELYWQIMSKYGSRENLYFQ”, the “soluble on expression in E. coli” value was “soluble”.
Take “MDRPVRVLFVCLGNICRSPMAEGIFRKLLKERGLEDRFEVDSAGTGAWHVGEPMDPRARRVLEEEGAYFPHVARRLTREDVLAYDHILVMDRENLEEVLRRFPEARGKVRLVLEELGGGEVQDPYYGDLEDFRKVYWTLEAALQAFLDRHGSPSPAAEGRA”: the “soluble on expression in E. coli” value is given as “soluble”.
With “MGHHHHHHSHMNIPLEELQRNLQFHAFISYSGHDSFWVKNELLPNLEKEGMQICLHERNFVPGKSIVENIITCIEKSYKSIFVLSPNFVQSEWCHYELYFAHHNLFHEGSNSLILILLEPIPQYSIPSSYHKLKSLMARRTYLEWPKEKSKRGLFWANLRAAINIKLTEQAK”, the “soluble on expression in E. coli” value was “soluble”.
With “KVGFKIGGGMEYGFNEIWSLQPSLFVSSKGAKKDELSVNAVYLELPVMAAARFKVADNTNIVLSAGPYFACGIAGNSKVDLGKGRLEVDTFGDDGLLKRGDVGLGIGVAAEFGKIIAGLDGQFGFVDVMDNVNGKNLNLSISVGYKF”, the “soluble on expression in E. coli” value is on record as “not soluble”.
Take “MTDTARKIVAQPLSAAAFAPFGQVIDTAQVASRPMNDGRARRFHDLAEIEVIGNGARVVVGLVEAEPYAVPLWLNLVERHPLGAQAFVPLNAAPFLVVVCPDESGKPGAPQAFITAPHQGVCYARNTWHSVLTPFGAAQDFVVIDRGGPGVNLEEHLFDEPWIVHLSTSGLEHHHHHH”: the “soluble on expression in E. coli” value is “soluble”.
For SLIMRYADSGLCGTVSQNMADARTRAESTDLSETSPDE, the “soluble on expression in E. coli” value is reported as “soluble”.
